Reference: paper PMC8264776

Target: T1, OsbHLH148 (bHLH148-6xHis) (Oryza sativa) (UniProt Q75KV9)
T1 sequence: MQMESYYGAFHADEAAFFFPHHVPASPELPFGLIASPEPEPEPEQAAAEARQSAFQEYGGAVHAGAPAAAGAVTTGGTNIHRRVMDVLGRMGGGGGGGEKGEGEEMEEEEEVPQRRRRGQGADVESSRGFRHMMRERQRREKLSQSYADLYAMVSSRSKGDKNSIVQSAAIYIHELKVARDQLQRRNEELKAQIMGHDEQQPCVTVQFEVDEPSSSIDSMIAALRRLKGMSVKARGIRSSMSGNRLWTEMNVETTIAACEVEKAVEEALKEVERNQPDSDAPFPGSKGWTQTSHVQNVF
Assay: EMSA
Details: 10 mM Tris pH 7.5, 50 mM KCl, 1 mM DTT, 2.5% glycerol, 5 mM MgCl (so in the source), 0.05% NP-40, 50 ng/ul poly(dI-dC); 20 min room temperature; 5% native PAGE

“AAATAAATAAGACAGACGATTAAAATTAGATACGTAAATCATGGCGGCGTTTAAAATGGGATGGATTGAGTAGTACACTGTACCAGCGTACCCTTTTGTACTCATAGGAAGACTTCGACATTTTCAAACACTTGAGGACAACTTTCCAATTCAATAACAATACTACTCCACACGTGGCTGAAATGGCTGAAAAAGTTCCA (double strand) [OsRAP2.6 promoter fragment]” was tested. Which binding did it give?
Its binding is “binds”.
